Laboratory results from PMC10845952, “Mass spectrometry and split luciferase complementation assays reveal the MecA protein interactome of Streptococcus mutans” (Microbiology Spectrum, 2024).

T1: MecA fused to the RenG N-terminal domain (1-155) (S. mutans, UniProt Q8DW33 1-240)
T1 construct: adaptor protein MecA; S. mutans UA159; source: S. mutans, expressed in live cells; not shown: RenG luciferase N-terminal domain (1-155), C-terminal, kept
T1 sequence: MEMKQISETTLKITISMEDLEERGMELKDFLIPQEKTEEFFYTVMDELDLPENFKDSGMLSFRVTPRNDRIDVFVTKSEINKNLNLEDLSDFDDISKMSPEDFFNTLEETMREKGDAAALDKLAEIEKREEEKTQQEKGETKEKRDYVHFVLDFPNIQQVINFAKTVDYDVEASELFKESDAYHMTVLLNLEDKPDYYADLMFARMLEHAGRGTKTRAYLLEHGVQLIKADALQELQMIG

B1: XseA fused to the RenG C-terminal domain (156-314) (natural protein, S. mutans, UniProt Q8DVB5 1-447, looked up)
chain: MSDYLSVSSLTKYLKLKFDRDPYLERVYLTGQVSNFRRRPNHQYFSLKDEKAVIQATMWSGIYRKLGFELEEGMKINVIGRVQLYEPSGSYSIIIEKAEPDGIGALAVQFEQLKKKLAEAGYFDDRHKQRLSQFVKKIGVVTSPSGAVIRDIITTVSRRFPGVDILLFPTKVQGEGAAQEVADNIRLANERTDLDLLIVGRGGGSIEDLWAFNEEIVVQAIFESHLPIISSVGHETDTTLADFAADRRAATPTAAAELATPVTKADLLAFLKERQMRSYQAVMRLIRQKDEQVKKLQRSVIFRQPERLYDAYVQKLDHLRTHLLTKVRQVYDVYDSKEHLLRQRLLSFNLSGCIQRYQAQLKQDQRLLLSHMSSQYDSKLARFEKAQDALLSLDTTRIVARGYAIVQKDNHIIQSTQQIKKGDRLHLEMKDGQVQVEVENVKQEENI
notes: Exodeoxyribonuclease VII large subunit, XseA; S. mutans UA159; not shown: RenG luciferase C-terminal domain (156-314), C-terminal, kept
B2: ThiI fused to the RenG C-terminal domain (156-314) (natural protein, S. mutans, UniProt Q8DUR1 1-405, looked up)
chain: MQYSEIMVRYGELSTKGKNRMRFINQLKRNMKHVLSIYPEVSIRADRDRAHIYLNGANYVPVAESLKQIFGIQAFSPSYKVEKSVPALEKAVQAIMVELHHEGLTFKISSKRSDHQFELDSRELNQVLGSAVFAVLPDIKAQMNHPNVNLKVEIREEAAYLSYENIKGAGGLPVGTAGKGMLMLSGGIDSPVAGYLALKRGVNIEAVHFASPPYTSPGALKKAQDLTRKLTKFGGNIQFIEVPFTEIQEEIKAKAPEAYLMTLTRRFMMRIADRIREERSGLVIINGESLGQVASQTLESMQAINAVTTTPVIRPVVTMDKLEIIDIAEKIDTFAISIQPFEDCCTIFAPDRPKTNPKIKNVEQYEARLDIEGLVARAVAGINITEITPQEESQDEVDVLIEDLL
notes: tRNA 4-thiouridine(8) synthase, ThiI; S. mutans UA159; also called Thil; not shown: RenG luciferase C-terminal domain (156-314), C-terminal, kept
B3: UvrA fused to the RenG C-terminal domain (156-314) (natural protein, S. mutans, UniProt P72481 1-943, looked up)
chain: MQDKLIIRGARAHNLKNIDVEIPRDKLIVMTGLSGSGKSSLAFDTIYAEGQRRYVESLSAYARQFLGNMDKPDVDSIDGLSPAISIDQKTTSKNPRSTVGTVTEINDYLRLLYARVGIPYCKNGHGAITASSVEQIVDQVLILPERTRMQILAPVVRRKKGQHKAVFDRIQKDGYVRVRIDGDIMDVAEVPELSKNKMHNIEVVVDRLVQKDGIRGRLFDSIEAALHLGDGYVIIDTMDDHELIFSEHYSCPVCGFTVPELEPRLFSFNAPFGSCPTCDGLGIKLEVDLDLVIPDENKTLREGTLAPWNPISSNYYPQLLEQAMNAFGVDMDKPWKDLSDEDKKLVLHGSGDTAFHFHYQNDFGGVRDIDIPFEGIISNISRRYHETNSDFTRNVMRSYMNELPCATCHGYRLNDQALSVRVGGKEGLNIGQVSELSIADHLSLLTHLELSENEKTIATPIVKEIKDRLTFLNNVGLNYLTLSRSAGTLSGGESQRIRLATQIGSNLSGVLYILDEPSIGLHQRDNDRLISSLKKMRDLGNTLIVVEHDEDTMMAADWLVDVGPGAGALGGEIVASGTPRQVAKNKKSITGQYLSGKKKIPVPLDRRKGSGRFIEIKGAAENNLQNINVKFPLGKFIAVTGVSGSGKSTLVNSILKKVIAQKLNRNSEKPGKYKSISGIEHIDRLIDIDQSPIGRTPRSNPATYTGVFDDIRDLFAQTNEAKIRGYKKGRFSFNVKGGRCEACSGDGIIKIEMHFLPDVYVPCEVCHGTRYNSETLEVHYKDKNIAEILNMTVNDAAEFFAPIPKIARKIRTIKDVGLGYVTLGQPATTLSGGEAQRMKLASELHKRSTGKSFYILDEPTTGLHTDDIARLLKVLERFVDDGNTVLVIEHNLDVIKTADHIIDLGPEGGVGGGQVIATGTPEQVAEMTESYTGQYLKGRLNEK
notes: Excinuclease ABC subunit, UvrA; S. mutans UA159; not shown: RenG luciferase C-terminal domain (156-314), C-terminal, kept
B4: DnaG with the RenG C-terminal domain (156-314) fused to its N-terminus (natural protein, S. mutans, UniProt Q8DUS6 1-592, looked up)
chain: MVVDKEKIKEIKDSINIVDVIGEVVSLSRSGRNYLGLCPFHKEKTPSFNVIEDRQFFHCFGCGRSGDVFKFVEDYRNISFLESVQVLAERSGINVTLQDKSQEVKKEHPHQKLFNINGDANKFYQAVLKTTKVGETARQYLYERGLTDELITYFKIGLAPNEYDYLYQAMLKKYDEDTIINSGLFNLSDSNSIYDAFRNRIMFPLTDEFGHIIGFSGRIWTEEDTSKKLAKYKNTRSTIIFNKSYELYHLDKARTAAKKEHELYLMEGFMDVIAAYRAGIPNAVASMGTALTPEHVKHLRKFTKKVILTYDGDKAGQNAIAKSLNLLSNMAVEIVRIPGQMDPDEFIKENSEEELEKLLKQARISSAEFWIEHLKPENIDNLQAEIDYVEKIAKVIAASPSITAQNTYINKVAEFLPDFDYLQVEQAVNNERLQMRSQISEQESANQQVLIDLPVTKQLTALTKAESQLFHRLLHHDYLLNEFRNRAHFKFTTPELQELYQILKTNGEINAYDLSQLSNQLQETYYRVLEENLPEEIAEDEIRQIEDQIDKCLQRQEMRKQSKAIRESSNHGDVDTAVEGLAALIAQKRNME
notes: also called N-DnaG

Target: T1, MecA fused to the RenG N-terminal …
Experiment: split reporter (BiFC, NanoBiT)
Details: partners not purified

| Binder | relative binding affinity (%) |
| --- | --- |
| B1 | 3.16 ± 0.25 |
| B2 | 8.92 ± 1.07 |
| B3 | 7.86 ± 0.3 |
| B4 | 6.97 ± 0.32 |
